From US20250002610A1 (Genmab, published 2025)
Numbering of substitutions follows the chain as printed.

B1: IgG1-DR4-FERR (antibody, V domains shown)
VH: QVQLQESGPGLVKPSGTLSLTCAVSGGSISSYSWWSWIRQPPGKGLEWIGELYHSGSTNYNPSLKSRVTISVDKSKNQFSLKLRSVTAADTAVYYCVRGVATIDYWGQGTLVTVSS
VL: QSALTQPPSASGSPGQSVTISCTGTSSDVGGYNFVSWYQQDPGKAPKLLIYEVTKRPSGVPDRFSGSKSGNTASLTVSGLQAEDEADYYCSSYAGSNNVMFGGGTKLTVLG
notes: Bivalent monoclonal IgG1 lambda
B2: BisG1-b12-FERL/DR4-FERR (bispecific antibody, human IgG1, kappa, lambda)
heavy 1: QVQLVQSGAEVKKPGASVKVSCQASGYRFSNFVIHWVRQAPGQRFEWMGWINPYNGNKEFSAKFQDRVTFTADTSANTAYMELRSLRSADTAVYYCARVGPYSWDDSPQDNYYMDVWGKGTTVIVSSASTKGPSVFPLAPSSKSTSGGTAALGCLVKDYFPEPVTVSWNSGALTSGVHTFPAVLQSSGLYSLSSVVTVPSSSLGTQTYICNVNHKPSNTKVDKRVEPKSCDKTHTCPPCPAPEFERGPSVFLFPPKPKDTLMISRTPEVTCVVVDVSHEDPEVKFNWYVDGVEVHNAKTKPREEQYNSTYRVVSVLTVLHQDWLNGKEYKCKVSNKALPAPIEKTISKAKGQPREPQVYTLPPSREEMTKNQVSLTCLVKGFYPSDIAVEWESNGQPENNYKTTPPVLDSDGSFLLYSKLTVDKSRWQQGNVFSCSVMHEALHNHYTQKSLSLSPG
light 1: EIVLTQSPGTLSLSPGERATFSCRSSHSIRSRRVAWYQHKPGQAPRLVIHGVSNRASGISDRFSGSGSGTDFTLTITRVEPEDFALYYCQVYGASSYTFGQGTKLERKRTVAAPSVFIFPPSDEQLKSGTASVVCLLNNFYPREAKVQWKVDNALQSGNSQESVTEQDSKDSTYSLSSTLTLSKADYEKHKVYACEVTHQGLSSPVTKSFNRGEC
heavy 2: QVQLQESGPGLVKPSGTLSLTCAVSGGSISSYSWWSWIRQPPGKGLEWIGELYHSGSTNYNPSLKSRVTISVDKSKNQFSLKLRSVTAADTAVYYCVRGVATIDYWGQGTLVTVSSASTKGPSVFPLAPSSKSTSGGTAALGCLVKDYFPEPVTVSWNSGALTSGVHTFPAVLQSSGLYSLSSVVTVPSSSLGTQTYICNVNHKPSNTKVDKRVEPKSCDKTHTCPPCPAPEFERGPSVFLFPPKPKDTLMISRTPEVTCVVVDVSHEDPEVKFNWYVDGVEVHNAKTKPREEQYNSTYRVVSVLTVLHQDWLNGKEYKCKVSNKALPAPIEKTISKAKGQPREPQVYTLPPSREEMTKNQVSLTCLVKGFYPSDIAVEWESNGQPENNYKTTPPVLDSDGSFFLYSRLTVDKSRWQQGNVFSCSVMHEALHNHYTQKSLSLSPG
light 2: QSALTQPPSASGSPGQSVTISCTGTSSDVGGYNFVSWYQQDPGKAPKLLIYEVTKRPSGVPDRFSGSKSGNTASLTVSGLQAEDEADYYCSSYAGSNNVMFGGGTKLTVLGQPKAAPSVTLFPPSSEELQANKATLVCLISDFYPGAVTVAWKADSSPVKAGVETTTPSKQSNNKYAASSYLSLTPEQWKSHRSYSCQVTHEGSTVEKTVAPTECS
notes: Fab-arm exchange of IgG1-b12-FERL and IgG1-DR4-FERR; also called bsIgG1-ctrl-FERLxDR4-FERR

Experiments:
[1] = target: T1, cynomolgus monkey DR4 with death domain deletion on ExpiCHO-S cells (cynomolgus monkey (Macaca fascicularis)); experiment: flow cytometry, ExpiCHO-S cells expressing cynomolgus monkey DR4, n = 3
T1 construct: also called cynomolgus DR4
T1 chain: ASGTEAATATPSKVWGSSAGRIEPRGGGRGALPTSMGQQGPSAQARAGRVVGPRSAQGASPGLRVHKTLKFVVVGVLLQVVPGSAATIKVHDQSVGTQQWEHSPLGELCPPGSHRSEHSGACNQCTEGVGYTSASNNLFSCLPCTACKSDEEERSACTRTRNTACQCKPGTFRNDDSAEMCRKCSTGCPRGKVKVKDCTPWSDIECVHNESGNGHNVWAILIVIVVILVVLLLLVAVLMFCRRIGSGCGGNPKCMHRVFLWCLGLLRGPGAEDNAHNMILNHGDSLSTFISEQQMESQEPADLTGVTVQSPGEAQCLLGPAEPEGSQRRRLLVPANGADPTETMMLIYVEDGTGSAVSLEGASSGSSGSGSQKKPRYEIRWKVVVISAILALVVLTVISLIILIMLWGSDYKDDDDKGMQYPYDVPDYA
Description: Binding of BisG1-FAPα-FERL/DR4-FERR, BisG1-DR4-FEAL/b12-FEAR and IgG1-DR4-FERR to DR4 of various species commonly used for nonclinical toxicology studies was assessed by flow cytometry using ExpiCHO-S cells transiently expressing DR4 from different animal species. In contrast to other species, rodents only express one DR which has highest homology with human DR5. Therefore, ExpiCHO-S cells transiently expressing rat and mouse DR protein were used instead. All DR constructs lack the intracellular DD to avoid apoptosis of transfected cells upon DR(4) activation. IgG1-b12 was used as negative control.

[2] = target: T2, His-tagged recombinant Cynomolgus FAPα (Acro Biosystems, Cat #FAP-C52H3-100ug) (cynomolgus monkey, UniProt A0A2K5VGF4 26-760); experiment: BLI, antigen immobilized on AR2G sensors
T2 construct: Bought reagent; also called recombinant cynomolgus monkey FAPα; not shown: His tag of the vendor's construct (Acro Biosystems FAP-C52H3)
T2 sequence: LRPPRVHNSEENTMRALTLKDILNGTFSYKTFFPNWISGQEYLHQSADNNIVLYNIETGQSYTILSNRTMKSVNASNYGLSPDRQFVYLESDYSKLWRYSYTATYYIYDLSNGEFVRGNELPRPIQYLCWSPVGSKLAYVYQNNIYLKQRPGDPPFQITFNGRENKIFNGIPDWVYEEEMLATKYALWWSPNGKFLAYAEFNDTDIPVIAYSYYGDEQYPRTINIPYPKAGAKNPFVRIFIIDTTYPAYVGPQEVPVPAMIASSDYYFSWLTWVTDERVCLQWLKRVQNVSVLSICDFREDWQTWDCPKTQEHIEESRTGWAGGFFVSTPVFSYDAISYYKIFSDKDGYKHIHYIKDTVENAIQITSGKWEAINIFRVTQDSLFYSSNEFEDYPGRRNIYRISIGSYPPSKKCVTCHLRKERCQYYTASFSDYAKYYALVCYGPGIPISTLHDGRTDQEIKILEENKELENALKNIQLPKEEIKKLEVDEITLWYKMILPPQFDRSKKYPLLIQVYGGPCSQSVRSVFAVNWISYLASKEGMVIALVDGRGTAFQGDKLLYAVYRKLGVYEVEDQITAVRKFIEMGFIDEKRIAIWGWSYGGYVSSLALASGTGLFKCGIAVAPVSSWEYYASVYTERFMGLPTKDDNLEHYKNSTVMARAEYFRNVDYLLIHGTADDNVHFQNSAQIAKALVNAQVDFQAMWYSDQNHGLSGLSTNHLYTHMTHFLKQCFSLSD
Description: (§1) Experiments were carried out while shaking at 1,000 RPM at 30° C. Amine Reactive 2nd Generation (AR2G) biosensors (Sartorius, Cat #18-5092) were activated by reaction with 20 mM EDC (N-(3-Dimethylaminopropyl)-N′-ethylcarbodiimide hydrochloride) (Sigma-Aldrich, Cat #03449) and 10 mM s-NHS (N-hydroxysulfosuccinimide sodium salt) (Sigma-Aldrich, Cat #56485) for 300 s. The activated AR2G sensors were loaded with 2.5 μg/mL His-tagged recombinant Human FAPα (Acro Biosystems, Cat #FAP-H5244-100ug) in 10 mM Sodium Acetate pH 5.0 (Sartorius, Cat #18-1069) or 2.5 μg/mL His-tagged recombinant Cynomolgus FAPα (Acro Biosystems, Cat #FAP-C52H3-100ug) in 10 mM Sodium Acetate pH 5.0 for 600 s and quenched with 1 M ethanolamine pH 8.5 (Sartorius Cat #18-1071) for 300 s. After a baseline measurement in Sample Diluent (1000 s; Sartorius, Cat #18-1104), the association (100 s) and dissociation (4,000 s) of functionally monovalent antibody was determined using a concentration range of 0.78-800 nM with two-fold dilution steps in Sample Diluent. The molecular mass of the antibodies used for the calculations was calculated from the sequences.
(§2) The Y-axis was aligned to the last 10 s of the baseline; Interstep Correction alignment to dissociation and Savitzky-Golay filtering were applied. Data traces with a response <0.05 nm were excluded from analysis. […]

[3] = target: T3, His-tagged recombinant Human FAPα (Acro Biosystems, Cat #FAP-H5244-100ug) (human, UniProt Q12884 26-760); experiment: BLI, antigen immobilized on AR2G sensors
T3 construct: Bought reagent; not shown: His tag
T3 sequence (looked up): T2 sequence with P4S, F236V, D392E
Description: as §1, §2

Binder	EC50 [1] [µg/mL]	binding result [2]	binding result [3]
B1	1.01	–	–
B2	–	no binding (tested: 800 nM)	no binding (tested: 800 nM)
